Columns and labels:
[1] = target: T1, His-tagged mouse PD-L1 protein (mouse, UniProt Q9EP73 19-238, limits assumed); assay: blocking plate assay: mPD-L1-His on Ni-NTA plate, cPD-1-hFc or mPD-1-hFc, HRP anti-human IgG Fc secondary; 12C concentration not given
T1 construct: also called mPD-L1-His; mPD-L1; not shown: His tag
Procedure: (§1) Histidine (His)-tagged canine or mPD-L1 protein was immobilized on the nickel-nitriloacetic acid (Ni-NTA) 96-well plate and horseradish peroxidase (HRP)-conjugated anti-human IgG Fc-specific secondary with mPD-1-hFc or cPD-1-hFc protein was added. OD450 was measured to quantify the amount of bound PD-1 protein.

[2] = target: T1, His-tagged mouse PD-L1 protein; assay: plate assay: His-tagged PD-L1 on Ni-NTA 96-well plate, PD-1-hFc, HRP anti-human IgG Fc secondary, OD450 given as fold ratio
Procedure: as §1

[3] = target: T1, His-tagged mouse PD-L1 protein; assay: plate assay: His-tagged PD-L1 on Ni-NTA 96-well plate, antibody, HRP anti-canine IgG secondary, OD450
Procedure: 12C and 3C. with human PD-L1 (hPD-L1), mPD-L1, and cPD-L1 proteins. His-tagged human PD-L1, mPD-L1, or cPD-L1 protein was immobilized on the Ni-NTA 96-well plate, and anti-cPD-L1 Abs. 12C or 3C. with HRP-conjugated anti-canine IgG-specific secondary was added. OD450 was measured to quantify the amount of bound PD-L1 antibodies (Ab=antibody).

[4] = target: T2, His-tagged canine PD-L1 protein (6X His tagged extracellular domain of cPD-L1) (canine, UniProt E2RKZ5 19-236); assay: Octet BLI (RED384): His-tagged cPD-L1 loaded on an NTA biosensor at 200 nM, antibody at 50, 100, 200 nmol/L
T2 construct: also called cPD-L1-His; canine PD-L1-His
T2 sequence: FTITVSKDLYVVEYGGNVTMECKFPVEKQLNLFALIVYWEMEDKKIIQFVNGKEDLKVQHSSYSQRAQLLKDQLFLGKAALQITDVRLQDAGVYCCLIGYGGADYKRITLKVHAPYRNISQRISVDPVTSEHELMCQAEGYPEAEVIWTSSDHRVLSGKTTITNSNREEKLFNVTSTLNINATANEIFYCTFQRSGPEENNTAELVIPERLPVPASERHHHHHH
Procedure: The binding affinity (KD) of the chimeric cPD-L1/cPD-L1 antibody (12C10E4) for canine PD-L1 was determined by Octet Biolayer interferometry (BLI) using the Octet RED384 system (Sartorius. Bohemia. NY). Briefly. His-tagged cPD-L1 protein was loaded on the Octet NTA biosensor at a concentration of 200 nM. The association step was performed by submerging the sensors in three concentrations of the chimeric cPD-L1/cPD-L1 antibody (12C10E4) (50, 100, 200 nmol/L) in the kinetic buffer. Dissociation was performed and monitored in fresh kinetic buffer. Data were analyzed with Octet Analysis HT software (Sartorius. Bohemia. NY), […].

[5] = target: T3, cPD-L1 on MB49^cPD-L1 cells; assay: flow cytometry of MB49^cPD-L1 cells
T3 construct: also called canine PD-L1 (Flag-cPD-L1) on mouse PD-L1 knockout MB49 cells
T3 chain: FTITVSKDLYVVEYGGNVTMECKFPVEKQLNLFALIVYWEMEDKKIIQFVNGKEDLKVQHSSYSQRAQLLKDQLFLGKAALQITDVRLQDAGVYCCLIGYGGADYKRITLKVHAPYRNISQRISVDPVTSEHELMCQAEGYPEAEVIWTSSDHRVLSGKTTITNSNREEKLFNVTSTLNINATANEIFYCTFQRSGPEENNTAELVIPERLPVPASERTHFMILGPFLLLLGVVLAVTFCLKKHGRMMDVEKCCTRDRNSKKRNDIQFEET
Procedure: (§2) For flow cytometry analysis, MB49 or BT549 cells were washed twice with ice-cold cell staining buffer (Biolegend, San Diego, CA) and stained with cIgG control, or cPD-L1 12C10E4 cIgG or cPD-L1 A12C10E4 cIgG for 1 hour at 4° C. After three washes with staining buffer, cell samples were stained with Alexa Fluor 488-conjugated anti-canine IgG specific secondary antibody for 30 minutes at 4° C. Cell samples were loaded on BD LSRFortessa (BD, Franklin Lakes, NJ) for analysis. Data analysis was performed on FlowJo v9 software (BD). Every hour, green fluorescent signal was measured and quantified by IncuCyte S3 (Sartorius. Goettingen, Germany). The Image analysis was performed according to the manufacturer's protocol.

[6] = target: T4, canine PD-L1 (Flag-cPD-L1) expressed on BT549 cells (canine, UniProt E2RKZ5 19-289); assay: cPD-1/cPD-L1 blockade assay on BT549^cPD-L1 cells; blocked ligand cPD-1-hFc; green fluorescence by IncuCyte S3
T4 construct: Flag-tagged (pGIPZ-shPD-L1/Flag-cPD-L1); Endogenous human PD-L1 was knocked down in the BT549 cells; also called membrane-localized cPD-L1 protein; BT549^cPD-L1 cells
T4 sequence: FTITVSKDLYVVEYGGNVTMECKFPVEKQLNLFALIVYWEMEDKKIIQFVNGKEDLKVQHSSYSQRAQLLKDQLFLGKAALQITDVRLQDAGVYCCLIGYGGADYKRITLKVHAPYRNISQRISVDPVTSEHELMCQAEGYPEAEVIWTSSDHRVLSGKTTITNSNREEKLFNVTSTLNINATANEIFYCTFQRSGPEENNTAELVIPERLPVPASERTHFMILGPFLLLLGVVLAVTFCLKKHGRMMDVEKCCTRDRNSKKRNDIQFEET
Procedure: (§3) To measure PD-1 protein on the cells. […] cells were seeded per well in 96-well plates. The plates were then incubated with cIgG control (Rockland Immunochemicals. Pottstown, PA). 12C10E4 antibody or cPD-L1 A12C10E4 antibody, cPD-1-hFc protein (human Fc protein conjugated: Sino Biological US. Wayne. PA), and/or anti-human Alexa Fluor 488 dye conjugate (ThermoFisher Scientific. Waltham. MA). Every 3 hours green fluorescent signal was measured and quantified by IncuCyte S3 (Sartorius. Goettingen. Germany) (FIG. 5B). The image analysis was performed according to the manufacturer's protocol.

[7] = target: T2, His-tagged canine PD-L1 protein (6X His …); assay: cell-free ELISA-based binding assay on His-tagged extracellular domain of cPD-L1, bound antibody as OD450
[8] = target: T5, mPD-L1 on MB49 cells (Mus musculus, UniProt Q9EP73); assay: flow cytometry of MB49 parental cells, which stain for mPD-L1 in the left panel
T5 construct: endogenous, membrane-located, on MB49 parental mouse bladder cancer cells; also called endogenous mouse PD-L1 on MB49 parental cells
T5 sequence (Q9EP73 19-290 limits assumed): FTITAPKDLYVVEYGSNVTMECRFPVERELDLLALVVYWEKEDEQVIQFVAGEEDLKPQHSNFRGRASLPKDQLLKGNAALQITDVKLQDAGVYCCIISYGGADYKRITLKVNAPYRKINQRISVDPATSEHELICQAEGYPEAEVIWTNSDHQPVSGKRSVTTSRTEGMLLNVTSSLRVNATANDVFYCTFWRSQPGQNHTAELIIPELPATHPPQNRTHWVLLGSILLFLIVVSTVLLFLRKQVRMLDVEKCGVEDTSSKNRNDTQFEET
Procedure: as §2

[9] = target: T2, His-tagged canine PD-L1 protein (6X His …); assay: cell-free blockade assay: canine PD-L1-His on Ni-NTA plate; blocked ligand PD-1-Fc (cPD-1-hFc), HRP anti-human IgG Fc secondary, OD450
Procedure: For the […] assays. Pierce Ni-NTA coated 96-well plates (ThermoFisher Scientific. Waltham. MA) were coated with canine PD-L1-His proteins and PD-1-Fc proteins (human Fc-protein conjugated) (SinoBiological US. Wayne. PA), and anti-human IgG Fc specific horseradish peroxidase (HRP)-conjugated secondary antibodies (SouthernBiotech. Birmingham. AL) were added, followed by the addition of anti-canine PD-L1, 12C10E4 or cPD-L1 A12C10E4 antibodies. The bound PD-1-Fc protein was quantified by measuring OD450 value with a Synergy LX multi-mode reader.

[10] = target: T4, canine PD-L1 (Flag-cPD-L1) expressed on …; assay: blockade of cPD-1-hFc binding to cPD-L1, bound cPD-1 quantified by green fluorescence on IncuCyte S3 (FIG. 5E)
Procedure: as §3

T1 sequence (Q9EP73 19-238 limits assumed): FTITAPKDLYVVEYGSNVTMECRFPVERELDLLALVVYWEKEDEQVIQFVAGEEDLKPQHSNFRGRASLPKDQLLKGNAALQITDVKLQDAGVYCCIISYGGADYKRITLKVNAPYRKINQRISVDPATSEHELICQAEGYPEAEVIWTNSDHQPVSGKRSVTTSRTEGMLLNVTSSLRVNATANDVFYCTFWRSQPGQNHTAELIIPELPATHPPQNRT

B1: murine monoclonal antibody cPD-L1 12C10E4 from the hybridoma (antibody, mouse IgG1, V domains shown)
VH: QVQLKQSGPGLVQPSQSLSITCTISGFSLTSFGVHWVRQSPGKGLEWLGVIWSGGSTDYNAAFTSRLSINKDNSKSQVFFKMNSLQADDTAIYYCARGGGPDWYFDVWGTGTTVTVSS
VL: DIVLTQSPASLAVSLGQRATISCRASESVEYYGTSLMQWYQQKPGQPPKLLIFAASNVKSGVPARFSGSGSGTDFSLNIHPVEEDDIAMYFCQQSGKVPHTFGGGTKLEIK
notes: Hybridoma antibody from A/J mice immunized with the cPD-L1 extracellular domain-human Fc; also called mAb 12C; murine 12C antibody
Question: Does B1 bind [1]?
Answer: Result: no binding

B2: mPD-1-hFc protein (Fc fusion, mouse, UniProt Q02242 25-167, looked up)
chain: LEVPNGPWRSLTFYPAWLTVSEGANATFTCSLSNWSEDLMLNWNRLSPSNQTEKQAAFCNGLSQPVQDARFQIIQLPNRHDFHMNILDTRRNDSGIYLCGAISLHPKAKIEESPGAELVVTERILETSTRYPSPSPKPEGRFQ
notes: also called mouse PD-1; not shown: human Fc
Question: Does B2 bind [2]?
Answer: Result: binds

B3: cPD-L1 3C chimeric antibody clone (3C8D3 variable domains, canine constant domains) (antibody, V domains shown)
VH: EVQLQQSGPELVKPGASVKMSCKASGYTFTDYVLHWVRQTNGKSLEWIGEINPSNGDTYYNQKFKGKATLTVDTSSSTAYMQLTTLTSEDSAVYYCARSDYSNYVGFAYWGQGTLVTVSA
VL: DIVMTQSHKFMSTSVGDRVSITCKVSQDVGTAVAWYQQKPGQCPKRLIYWTSTRHTGVPDRFTGSGSGTDFTLTISNVQSEDLVDYFCQQYSSYPLTFGGGTKLELKR
notes: also called cPD-L1 3C8D3
Question: Does B3 bind [3]?
Answer: Result: no binding

B4: cPD-L1 12C10E4 chimeric antibody (mouse variable domains, canine IgG2 / canine kappa constant domains) (antibody)
heavy: QVQLKQSGPGLVQPSQSLSITCTISGFSLTSFGVHWVRQSPGKGLEWLGVIWSGGSTDYNAAFTSRLSINKDNSKSQVFFKMNSLQADDTAIYYCARGGGPDWYFDVWGTGTTVTVSSASTTAPSVFPLAPSCGSTSGSTVALACLVSGYFPEPVTVSWNSGSLTSGVHTFPSVLQSSGLYSLSSMVTVPSSRWPSETFTCNVAHPASKTKVDKPVPKRENGRVPRPPDCPKCPAPEMLGGPSVFIFPPKPKDTLLIARTPEVTCVVVDLDPEDPEVQISWFVDGKQMQTAKTQPREEQFNGTYRVVSVLPIGHQDWLKGKQFTCKVNNKALPSPIERTISKARGQAHQPSVYVLPPSREELSKNTVSLTCLIKDFFPPDIDVEWQSNGQQEPESKYRTTPPQLDEDGSYFLYSKLSVDKSRWQRGDTFICAVMHEALHNHYTQKSLSHSPGK
light: DIVLTQSPASLAVSLGQRATISCRASESVEYYGTSLMQWYQQKPGQPPKLLIFAASNVKSGVPARFSGSGSGTDFSLNIHPVEEDDIAMYFCQQSGKVPHTFGGGTKLEIKRSMEIKRTDAQPAVYLFQPSPDQLHTGSASVVCLLNSFYPKDINVKWKVDGVIQDTGIQESVTEQDKDSTYSLSSTLTMSSTEYLSHELYSCEITHKSLPSTLIKSFQRSECQRVD
notes: Expressed in ExpiCHO-S cells from pTRIOZ-cIgG2-12C10E4; also called 12C chimeric antibody; mAb 12C
Question: With B4 as the binder, how does the Kd [4] read?
Answer: Its Kd is 8.6 nM.

Question: Does B4 bind [5]?
Answer: Result: binds

Question: Does B4 bind [3]?
Answer: Result: no binding

Question: And the “IC50 (read off the curve)” value [6]?
Answer: The value was roughly 0.06 µg/mL.

Question: What about the “EC50 (read off the curve)” value [7] of the same binder?
Answer: Its value is roughly 0.2 µg/mL.

Question: Does B4 bind [8]?
Answer: Result: no binding

Question: And the “IC50 (read off the curve)” value [9]?
Answer: Its value is roughly 0.05 µg/mL.

Question: What about the EC50 [10] of the same binder?
Answer: The EC50 was 0.419 µg/mL.

B5: cPD-L1 A12C10E4 chimeric antibody (antibody)
heavy: QVQLKQSGPGLVQPSQSLSITCTISGFSLTSFGVHWVRQSPGKGLEWLGVIWSGGSTDYNAAFTSRLSINKDNSKSQVFFKMNSLQADDTAIYYCARGGGPDWYFDVWGTGTTVTVSSASTTAPSVFPLAPSCGSTSGSTVALACLVSGYFPEPVTVSWNSGSLTSGVHTFPSVLQSSGLYSLSSMVTVPSSRWPSETFTCNVAHPASKTKVDKPVPKRENGRVPRPPDCPKCPAPEMLGGPSVFIFPPKPKDTLLIARTPEVTCVVVDLDPEDPEVQISWFVDGKQMQTAKTQPREEQFNGTYRVVSVLPIGHQDWLKGKQFTCKVNNKALPSPIERTISKARGQAHQPSVYVLPPSREELSKNTVSLTCLIKDFFPPDIDVEWQSNGQQEPESKYRTTPPQLDEDGSYFLYSKLSVDKSRWQRGDTFICAVMHEALHNHYTQKSLSHSPGK
light: DIVLTQSPASLAVSLGQRATISCRASESVEYYGTSLMQWYQQKPGQPPKLLIFAASNVKSGVPARFSGSGSGTDFSLNIHPVEEDDIAMYFCQQSGKVPHTFGGGTKLEIKRSMADAQPAVYLFQPSPDQLHTGSASVVCLLNSFYPKDINVKWKVDGVIQDTGIQESVTEQDKDSTYSLSSTLTMSSTEYLSHELYSCEITHKSLPSTLIKSFQRSECQRVD
notes: also called mAb A12C; cPD-L1 A12C10E4 cIgG
Question: What does the source list for B5?
Answer: EC50 (read off the curve) [7]: ~0.2 µg/mL; IC50 (read off the curve) [9]: ~0.05 µg/mL

Source: patent publication US20250277039A1 (PURDUE RESEARCH FOUNDATION, published 2025)
